T1: LeishIF4E-1 (Leishmania cap-binding isoform 1) (Leishmania major, UniProt E9ADE1 1-214)
T1 sequence (looked up): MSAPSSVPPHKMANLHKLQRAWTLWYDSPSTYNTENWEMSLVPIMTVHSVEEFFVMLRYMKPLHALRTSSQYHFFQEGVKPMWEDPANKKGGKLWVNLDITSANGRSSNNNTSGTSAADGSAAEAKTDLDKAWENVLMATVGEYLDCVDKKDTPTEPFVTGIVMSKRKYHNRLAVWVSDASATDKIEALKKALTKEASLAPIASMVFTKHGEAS

B1: Leish4E-IP1 (construct not stated; data not shown) (domain or fragment, Leishmania major, UniProt E9AFM3 1-52, looked up)
chain: MPSVRTMYTREELLRIATLASAMDLGPEVLRKFDVIEVAEPVPTPKRRDAES
B2: Leish4E-IP1_(1–52) (domain or fragment, Leishmania major, UniProt E9AFM3 1-52, looked up)
chain: B1 chain
B3: Leish4E-IP1_(1–100) (domain or fragment, Leishmania major, UniProt E9AFM3 1-100, looked up)
chain: MPSVRTMYTREELLRIATLASAMDLGPEVLRKFDVIEVAEPVPTPKRRDAESNFKGSVFTDNFSTSTTITNLGPNGGGNSGGKGGHNSGMNGGGSSSNHP

Experiments:
human eIF4E = human eIF4E (human, UniProt P06730 1-217)
Sequence of human eIF4E (P06730 whole entry): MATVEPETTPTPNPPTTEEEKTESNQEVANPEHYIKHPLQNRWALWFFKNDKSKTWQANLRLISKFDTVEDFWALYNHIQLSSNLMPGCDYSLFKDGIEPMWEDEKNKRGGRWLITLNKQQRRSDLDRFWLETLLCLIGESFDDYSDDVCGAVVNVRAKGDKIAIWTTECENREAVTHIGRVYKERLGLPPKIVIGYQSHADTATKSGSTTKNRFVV

[1] = biological target: T1, LeishIF4E-1 (Leishmania cap-binding …); test: ITC

Binder | fold lower binding affinity than for LeishIF4E-1 (human eIF4E) [fold] | Kd [1] [nM] | dH [1] [kcal/mol]
B1 | 10 | – | –
B2 | – | 9.7 | -15.5 ± 0.282
B3 | – | 87 | -3.11 ± 0.0804
